What was measured:
Test in all cases: SPOT array
[1] = target: T1, Yfr024 SH3 (LSB3_YEAST), P43603
T1 chain: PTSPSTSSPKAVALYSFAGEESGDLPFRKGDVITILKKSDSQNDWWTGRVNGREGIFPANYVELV

[2] = target: T2, Boi1 SH3 (BOI1_YEAST), P38041
T2 chain: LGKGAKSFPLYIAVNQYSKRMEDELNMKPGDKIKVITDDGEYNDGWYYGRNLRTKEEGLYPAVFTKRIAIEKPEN

[3] = target: T3, Myo5 SH3 (MYO5_YEAST), Q04439
T3 chain: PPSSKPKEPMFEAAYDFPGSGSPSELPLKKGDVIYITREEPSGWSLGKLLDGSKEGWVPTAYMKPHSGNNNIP

[4] = target: Sho1 SH3 (SHO1_YEAST), P40073
[5] = target: T4, Yhr016c SH3 (YSC84_YEAST), P32793
T4 chain: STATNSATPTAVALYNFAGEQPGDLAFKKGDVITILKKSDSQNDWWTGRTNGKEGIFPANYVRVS

[6] = target: T5, Rvs167 SH3 (RV167_YEAST), P39743
T5 chain: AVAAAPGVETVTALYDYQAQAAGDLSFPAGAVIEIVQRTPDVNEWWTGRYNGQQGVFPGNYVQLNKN

[7] = target: T6, Boi2 SH3 (BOI2_YEAST), P39969
T6 chain: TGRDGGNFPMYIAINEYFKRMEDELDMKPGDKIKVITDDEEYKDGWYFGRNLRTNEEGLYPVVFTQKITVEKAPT

Chain of Sho1 SH3 (SHO1_YEAST), P40073 (P40073 295-366): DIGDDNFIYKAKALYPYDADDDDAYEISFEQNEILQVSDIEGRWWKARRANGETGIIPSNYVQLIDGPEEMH

Binder | normalised SPOT signal, Boehringer light units (BLU); mean over the file's lines of this peptide [1] | normalised SPOT signal, Boehringer light units (BLU); mean over the file's lines of this peptide [2] | normalised SPOT signal, Boehringer light units (BLU); mean over the file's lines of this peptide [3] | normalised SPOT signal, Boehringer light units (BLU); mean over the file's lines of this peptide [4] | normalised SPOT signal, Boehringer light units (BLU); mean over the file's lines of this peptide [5] | normalised SPOT signal, Boehringer light units (BLU); mean over the file's lines of this peptide [6] | normalised SPOT signal, Boehringer light units (BLU); mean over the file's lines of this peptide [7]
RYPFRMIPELPPKR [YMR004W 186-199] | 18600 | 14100 | 3570 | 2730 | 7330 | 14800 | 552
RPVYRLKPNAPFQY [YLR072W 370-383] | 583 | 72 | 210 | 60.1 | 129 | 148 | 78.2
RLVSKYRPNSPIIL [YAL038W 409-422] | 565 | 246 | 286 | 42.5 | 108 | 233 | 74
RRRTRLRPPTPLSQ [YPL269W 616-629] | 819 | 137 | 1510 | 76.1 | 104 | 423 | 41.1
RLVNKLLPPHPFAD [YGL143C 139-152] | 187 | 440 | 289 | 20300 | 24.8 | 144 | 28.5
RMQQKNSPAFPTHS [YGR056W 183-196] | 4550 | 4830 | 1280 | 1220 | 1510 | 1150 | 227
RTFFKLPPNLPEAE [YHR017W 94-107] | 1050 | 220 | 2610 | 154 | 32.8 | 204 | 5.1
RRHNRQHPPYPHSG [YNL165W 14-27] | 667 | 299 | 1290 | 65.3 | 43.4 | 51.8 | 16
RYSFKLLPPQPGSK [YER114C 841-854] | 352 | 796 | 190 | 15500 | 23.5 | 84 | 47.8
RRKLRTVPGVPLIH [YOR004W 127-140] | 2640 | 89 | 2010 | 85.3 | 772 | 6330 | 20.1
RRIRKEHPGEPNVI [YOR090C 334-347] | 570 | 920 | 308 | 123 | 60.5 | 106 | 9
RLPSKTDPLDPHIK [YML050W 46-59] | 66.3 | 326 | 129 | 47.9 | 29.3 | 110 | 28
SANGKFIPSRPAPK [YHL007C 465-478] | 539 | 128 | 6760 | 75.2 | 14.7 | 147 | 5.4
RTPSKPDPMEPENT [YOR196C 194-207] | 78.9 | 28.1 | 187 | 18 | 21.1 | 19.3 | 35.4
RSRSKKDPGIPSNF [YER006W 41-54] | 360 | 585 | 800 | 118 | 52.3 | 159 | 6.9
RRLKKNLPSLPTPV [YOR127W 138-151] | 395 | 1760 | 824 | 27000 | 50.6 | 280 | 41.1

From publication PMC314469, “Protein Interaction Networks by Proteome Peptide Scanning” (PLoS Biology, 2004)
